Experimental data as given in patent US20140066368A1.
Positions count from the first letter of the chain named. Bridge positions count the residues as written; N and C are the ends. Ends that are not written are not given here.

B1: des-^1Lys^25,28Pro-h-Amylin (peptide)
peptide: CNTATCATQRLANFLVHSSNNFGPILPSTNVGSNTY
B2: des-^1Lys^18Arg^25,28,29Pro-h-Amylin (peptide)
peptide: B1 peptide with H17R, S28P
B3: des-^1Lys^18Arg^25,28Pro-h-Amylin (peptide)
peptide: B1 peptide with H17R
B4: des-^1Lys^25,28,29Pro-h-Amylin (peptide)
peptide: B1 peptide with S28P
B5: ^25,28Pro-h-Amylin (peptide)
peptide: KCNTATCATQRLANFLVHSSNNFGPILPSTNVGSNTY
B6: ^25Pro^26Val^28,29Pro-h-Amylin (peptide)
peptide: B5 peptide with I26V, S29P
B7: ^2,7Cyclo-[^2Asp,^7Lys]-h-Amylin (peptide)
peptide: B5 peptide with C2D, C7K, P25A, P28S
modifications: lactam 2-7; ends not checked
B8: ^18Arg^25,28,29Pro-h-Amylin (peptide)
peptide: B5 peptide with H18R, S29P
B9: ^18Arg^25,28Pro-h-Amylin (peptide)
peptide: B5 peptide with H18R
B10: ^25,28,29Pro-h-Amylin (peptide)
peptide: KCNTATCATQRLANFLVHSSNNFGPILPPTNVGSNTY-NH2
modifications: disulfide 2-7

Molecular target: amylin receptor (membrane-bound, rat basal forebrain membranes containing the nucleus accumbens and surrounding regions) (rat)
Experiment: competition with ^125I Bolton-Hunter amylin on rat basal forebrain membranes, filtration

Row | IC50 | Molecule
1 | 15 pM | ^28Pro-h-Amylin (peptide)
2 | 148 pM | ^1Ala-h-Amylin (peptide)
3 | 33 pM | ^1Ser-h-Amylin (peptide)
4 | 64 pM | ^29Pro-h-Amylin (peptide)
5 | 85 pM | B1
6 | 21 pM | B2
7 | 82 pM | B3
8 | 14 pM | B4
9 | 26 pM | B5
10 | 18 pM | B6
11 | 310 pM | B7
12 | 21 pM | B8
13 | 32 pM | B9
14 | 10 pM | B10
